Assay results taken from article PMC13544220, “Glycemic and bodyweight effects of GIPR coding variation reflect differences in surface expression and intrinsic functional impairment” (Science Advances, 2026).

Key:
Type in all cases: cell-based, human
[1] = system: wild-type and variant SNAP-GIPR; test: Surface SNAP-GIPR expression (SNAP-tag labelling) in AD293 cells; conditions: for AD293 Surface: Fig S3E, mean; for Surface SNAP-GIPR expression: sheet Fig 1C;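 on all read-outs here: scaled to the experimental average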
Procedure, shortened: (§1)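 Read-out: whole-cell fluorescence of surface-only SNAP label (Alexa Fluor 647, 500 nM, 10 min, RT), wide-field 20X, several FOVs per well. Flat-field corrected, phase-contrast masked, nontransfected-well signal subtracted; normalized to experiment mean or wild-type.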

[2] = system: wild-type and variant SNAP-GIPR; test: Surface SNAP-GIPR expression (SNAP-tag labelling) in INS-1 cells; conditions: Fig 4G; Mean
Procedure, shortened: as §1

[3] = system: wild-type and variant SNAP-GIPR; test: Single-concentration GIP cAMP response by HTRF in AD293 cells; conditions: Fig S3F, HTRF, mean;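 further: ratio to experiment-wide average response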
Experimental: (§2) All variants were tested in parallel on each occasion to control for transfection efficiency differences between experiments.

[4] = system: wild-type and variant SNAP-GIPR; test: Single-concentration GIP cAMP response by HTRF in INS-1 cells; conditions: Fig S3E, mean
Experimental: as §2

[5] = system: wild-type and variant SNAP-GIPR; test: cADDis cAMP imaging in AD293 cells, ensemble, expression-matched and per decile; conditions: Fig S3F, cADDis, mean;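 further: Ensemble cells as % of IBMX/FSK response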
Procedure, shortened: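 AD293 cells were transfected with SNAP-GIPR constructs and cotransduced with the cADDis Green Up cAMP sensor, then labeled after 24 h with 500 nM SNAP-Surface Alexa Fluor 647. Per-cell cADDis intensity was tracked at 37°C in KRBH with 6 mM glucose and 0.1% BSA.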

[6] = system: wild-type and variant SNAP-GIPR; test: Constitutive and agonist-mediated internalization, reversible SNAP-tag labelling, AD293 cells; design: key to Internalisation, Vehicle / Internalisation, +GIP / Internalisation, GIP-only: % internalization: residual fluorescence after Mesna vs pre-Mesna; Surface expression: unit not given here; conditions: Mean; for +GIP internalisation (100 nM) / GIP-specific internalisation (100 nM) / Constitutive internalisation (100 nM) / Surface expression: Fig 4E; for +GIP internalisation (100 nM) / GIP-specific internalisation (100 nM): GIP 100 nM; for Internalisation, +GIP / Internalisation, GIP-only / Internalisation, Vehicle: Fig S4C, AD293
Procedure, shortened: (§3)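 Percentage internalization calculated as specific SNAP fluorescence remaining after 10 min Mesna exposure, relative to pre-Mesna signal, imaged in TNE buffer (pH 8.6).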

[7] = system: wild-type and variant SNAP-GIPR; test: Constitutive and agonist-mediated internalization, reversible SNAP-tag labelling, INS-1 cells; design: key to Internalisation, GIP-only / Internalisation, Vehicle / Internalisation, +GIP: % internalization: residual fluorescence after Mesna vs pre-Mesna; conditions: Mean; for +GIP internalisation (100 nM) / GIP-specific internalisation (100 nM) / Constitutive internalisation (100 nM): Fig 4G; for +GIP internalisation (100 nM) / GIP-specific internalisation (100 nM): GIP 100 nM; for Internalisation, +GIP / Internalisation, GIP-only / Internalisation, Vehicle: Fig S4C, INS-1
Procedure, shortened: as §3

[8] = column repeated, paired with cAMP 100 nM

B1: R217L (protein, UniProt P48546 22-466, looked up, variant R217L)
Gastric inhibitory …: RAETGSKGQTAGELYQRWERYRRECQETLAAAEPPSGLACNGSFDMYVCWDYAAPNATARASCPWYLPWHHHVAAGFVLRQCGSDGQWGLWRDHTQCENPEKNEAFLDQRLILERLQVMYTVGYSLSLATLLLALLILSLFRRLHCTRNYIHINLFTSFMLRAAAILSRDRLLPRPGPYLGDQALALWNQALAACLTAQIVTQYCVGANYTWLLVEGVYLHSLLVLVGGSEEGHFRYYLLLGWGAPALFVIPWVIVRYLYENTQCWERNEVKAIWWIIRTPILMTILINFLIFIRILGILLSKLRTRQMRCRDYRLRLARSTLTLVPLLGVHEVVFAPVTEEQARGALRFAKLGFEIFLSSFQGFLVSVLYCFINKEVQSEIRRGWHHCRLRRSLGEEQRQLPERAFRALPSGSGPGEVPTSRGLSSGTLPGPGNEASRELESYC
- AD293 Surface [1, 8]: 0.4259
- AD293 Surface ([1]; paired with cAMP 100 pM): 0.4259
- Surface SNAP-GIPR expression ([1]; replicate 1): 0.4201
- Surface SNAP-GIPR expression ([1]; replicate 2): 0.7236
- Surface SNAP-GIPR expression ([1]; replicate 3): 0.824
- Surface SNAP-GIPR expression ([1]; replicate 4): 0.3234
- Surface SNAP-GIPR expression ([1]; replicate 5): 0.3781
- Surface SNAP-GIPR expression ([1]; replicate 6): 0.5304
- Surface SNAP-GIPR expression ([1]; replicate 7): 0.6162
- Surface SNAP-GIPR expression ([1]; replicate 8): 0.6634
- Surface SNAP-GIPR expression ([1]; replicate 9): 0.3807
- Surface SNAP-GIPR expression ([1]; replicate 10): 0.4129
- Surface SNAP-GIPR expression ([1]; replicate 11): 0.358
- Surface SNAP-GIPR expression ([1]; replicate 12): 0.3678
- Surface SNAP-GIPR expression ([1]; replicate 13): 0.04028
- Surface SNAP-GIPR expression ([1]; replicate 14): 0.3517
- Surface SNAP-GIPR expression ([1]; replicate 15): 0.3652
- Surface SNAP-GIPR expression ([1]; replicate 16): 0.3999
- Surface SNAP-GIPR expression ([1]; replicate 17): 0.3288
- Surface SNAP-GIPR expression ([1]; replicate 18): 0.3912
- Surface SNAP-GIPR expression ([1]; replicate 19): 0.3034
- Surface SNAP-GIPR expression ([1]; replicate 20): 0.3764
- Surface SNAP-GIPR expression ([1]; replicate 21): 0.4615
- Surface SNAP-GIPR expression ([1]; replicate 22): 0.364
- Surface SNAP-GIPR expression ([1]; replicate 23): 0.3963
- Surface SNAP-GIPR expression ([1]; replicate 24): 0.3543
- Surface SNAP-GIPR expression ([1]; replicate 25): 0.4738
- Surface SNAP-GIPR expression ([1]; replicate 26): 0.4835
- Surface SNAP-GIPR expression ([1]; replicate 27): 0.4338
- Surface SNAP-GIPR expression ([1]; replicate 28): 0.5117
- Surface SNAP-GIPR expression ([1]; replicate 29): 0.4222
- Surface SNAP-GIPR expression ([1]; replicate 30): 0.4733
- Surface SNAP-GIPR expression ([1]; replicate 31): 0.4841
- Surface SNAP-GIPR expression ([1]; replicate 32): 0.4011
- Surface SNAP-GIPR expression ([1]; replicate 33): 0.4465
- Surface SNAP-GIPR expression ([1]; replicate 34): 0.4033
- Surface SNAP-GIPR expression ([1]; replicate 35): 0.2194
- Surface SNAP-GIPR expression ([1]; replicate 36): 0.2502
- Surface SNAP-GIPR expression ([1]; replicate 37): 0.3794
- Surface SNAP-GIPR expression ([1]; replicate 38): 0.4678
- Surface SNAP-GIPR expression ([1]; replicate 39): 0.4904
- Surface SNAP-GIPR expression ([1]; replicate 40): 0.4789
- Surface SNAP-GIPR expression ([1]; replicate 41): 0.5101
- Surface expression [2]: 0.4654
- AD293 100 pM HTRF [3]: 0.09215
- AD293 100 nM HTRF [3]: 1.142
- INS-1 cAMP (100 nM) [4]: 1.196
- AD293 100 pM cADDis [5]: 17.6282
- AD293 100 nM cADDis [5]: 34.7
- +GIP internalisation (100 nM) [6]: 0.224
- GIP-specific internalisation (100 nM) [6]: 0.04046
- Constitutive internalisation (100 nM) [6]: 0.1836
- Surface expression [6]: 0.4265
- Internalisation, +GIP [6]: 55.082
- Internalisation, GIP-only [6]: 10.4684
- Internalisation, Vehicle [6]: 44.6136
- +GIP internalisation (100 nM) [7]: 0.2239
- GIP-specific internalisation (100 nM) [7]: 0.03772
- Constitutive internalisation (100 nM) [7]: 0.1862
- Internalisation, +GIP [7]: 51.715
- Internalisation, GIP-only [7]: 8.862
- Internalisation, Vehicle [7]: 42.8533

B2: L262H (protein, UniProt P48546 22-466, looked up, variant L262H)
Gastric inhibitory …: RAETGSKGQTAGELYQRWERYRRECQETLAAAEPPSGLACNGSFDMYVCWDYAAPNATARASCPWYLPWHHHVAAGFVLRQCGSDGQWGLWRDHTQCENPEKNEAFLDQRLILERLQVMYTVGYSLSLATLLLALLILSLFRRLHCTRNYIHINLFTSFMLRAAAILSRDRLLPRPGPYLGDQALALWNQALAACRTAQIVTQYCVGANYTWLLVEGVYLHSLLVLVGGSEEGHFRYYLLHGWGAPALFVIPWVIVRYLYENTQCWERNEVKAIWWIIRTPILMTILINFLIFIRILGILLSKLRTRQMRCRDYRLRLARSTLTLVPLLGVHEVVFAPVTEEQARGALRFAKLGFEIFLSSFQGFLVSVLYCFINKEVQSEIRRGWHHCRLRRSLGEEQRQLPERAFRALPSGSGPGEVPTSRGLSSGTLPGPGNEASRELESYC
- AD293 Surface [1, 8]: 0.4082
- AD293 Surface ([1]; paired with cAMP 100 pM): 0.4082
- Surface SNAP-GIPR expression ([1]; replicate 1): 0.05586
- Surface SNAP-GIPR expression ([1]; replicate 2): 0.3975
- Surface SNAP-GIPR expression ([1]; replicate 3): 0.3851
- Surface SNAP-GIPR expression ([1]; replicate 4): 0.346
- Surface SNAP-GIPR expression ([1]; replicate 5): 0.2997
- Surface SNAP-GIPR expression ([1]; replicate 6): 0.4709
- Surface SNAP-GIPR expression ([1]; replicate 7): 0.6801
- Surface SNAP-GIPR expression ([1]; replicate 8): 0.6962
- Surface SNAP-GIPR expression ([1]; replicate 9): 0.3552
- Surface SNAP-GIPR expression ([1]; replicate 10): 0.4769
- Surface SNAP-GIPR expression ([1]; replicate 11): 0.4805
- Surface SNAP-GIPR expression ([1]; replicate 12): 0.4059
- Surface SNAP-GIPR expression ([1]; replicate 13): 0.3345
- Surface SNAP-GIPR expression ([1]; replicate 14): 0.4406
- Surface SNAP-GIPR expression ([1]; replicate 15): 0.3425
- Surface SNAP-GIPR expression ([1]; replicate 16): 0.4438
- Surface SNAP-GIPR expression ([1]; replicate 17): 0.4347
- Surface SNAP-GIPR expression ([1]; replicate 18): 0.4011
- Surface SNAP-GIPR expression ([1]; replicate 19): 0.3575
- Surface SNAP-GIPR expression ([1]; replicate 20): 0.2679
- Surface SNAP-GIPR expression ([1]; replicate 21): 0.3532
- Surface SNAP-GIPR expression ([1]; replicate 22): 0.4093
- Surface SNAP-GIPR expression ([1]; replicate 23): 0.4836
- Surface SNAP-GIPR expression ([1]; replicate 24): 0.3698
- Surface SNAP-GIPR expression ([1]; replicate 25): 0.4044
- Surface SNAP-GIPR expression ([1]; replicate 26): 0.4747
- Surface SNAP-GIPR expression ([1]; replicate 27): 0.4781
- Surface SNAP-GIPR expression ([1]; replicate 28): 0.4405
- Surface SNAP-GIPR expression ([1]; replicate 29): 0.3368
- Surface SNAP-GIPR expression ([1]; replicate 30): 0.4516
- Surface SNAP-GIPR expression ([1]; replicate 31): 0.3843
- Surface SNAP-GIPR expression ([1]; replicate 32): 0.4196
- Surface SNAP-GIPR expression ([1]; replicate 33): 0.4081
- Surface SNAP-GIPR expression ([1]; replicate 34): 0.4658
- Surface SNAP-GIPR expression ([1]; replicate 35): 0.5726
- Surface SNAP-GIPR expression ([1]; replicate 36): 0.3172
- Surface SNAP-GIPR expression ([1]; replicate 37): 0.2985
- Surface SNAP-GIPR expression ([1]; replicate 38): 0.4456
- Surface SNAP-GIPR expression ([1]; replicate 39): 0.3825
- Surface SNAP-GIPR expression ([1]; replicate 40): 0.3992
- Surface SNAP-GIPR expression ([1]; replicate 41): 0.3665
- Surface expression [2]: 0.4629
- AD293 100 pM HTRF [3]: 0.1729
- AD293 100 nM HTRF [3]: 1.14
- INS-1 cAMP (100 nM) [4]: 0.9739
- AD293 100 pM cADDis [5]: 18.6863
- AD293 100 nM cADDis [5]: 34.26
- +GIP internalisation (100 nM) [6]: 0.2171
- GIP-specific internalisation (100 nM) [6]: 0.04083
- Constitutive internalisation (100 nM) [6]: 0.1763
- Surface expression [6]: 0.3728
- Internalisation, +GIP [6]: 58.197
- Internalisation, GIP-only [6]: 10.9885
- Internalisation, Vehicle [6]: 47.2085
- +GIP internalisation (100 nM) [7]: 0.2099
- GIP-specific internalisation (100 nM) [7]: 0.0574
- Constitutive internalisation (100 nM) [7]: 0.1525
- Internalisation, +GIP [7]: 50.32
- Internalisation, GIP-only [7]: 13.8767
- Internalisation, Vehicle [7]: 36.4433
